In the supplement of paper PMC9170038:

System: MS2 coat protein
Assay: apparent KD of MS2 coat protein; higher = weaker reporter binding
Conditions: Eterna round: R107
Method in brief: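 Designed RNA switches, transcribed on-chip from Illumina sequencing clusters, were titrated with SNAP-549-labelled MS2 coat protein from 0.7 or 1.5 nM to 3 µM in twofold steps. The solution was 100 mM Tris-HCl pH 7.5, 80 mM KCl, 4 mM MgCl2, with constant ligand or without it. Apparent KD is the median over each design's normalised cluster binding-curve fits.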

[1] = input ligand: theophylline 20 uM
[2] = input ligand: theophylline 2 mM
[3] = input ligand: tryptophan 2.4 mM

Sequence | apparent KD of MS2 coat protein (input ligand: arginine 13.2 mM) [µM] | apparent KD of MS2 coat protein (input ligand: none) [µM] | apparent KD of MS2 coat protein [1] [µM] | apparent KD of MS2 coat protein [2] [µM] | apparent KD of MS2 coat protein [3] [µM]
UGUAUGGACUGAAGGAGCGGAUGAUAAUCUGAGGAUCACCCAGGUAAUAAGGCGAAAGCCAUCCAGGUAGGUCGCAGUCCAUACU | 0.0409 | 0.0829 | 0.0969 | 0.111 | 0.103
UGUAUGGACUGAAGGAGCGGUAGAUAGCUUGAGGAUCACCCAAGUAAUAAGGCGAAAGCCUACCAGGUAGGUCGCAGUCCAUACU | 0.028 | 0.0254 | 0.0308 | 0.0269 | 0.0279
UGUAUGUGAUCUGAUACCAGAGUUGAUAACCUGAGGAUCACCCUGGUAAGGCGAAAGCCACUCCCUUGGCAGCAGAUCGCAUACU | 0.131 | 0.0861 | 0.0674 | 0.0183 | 0.101
UGUAUGUGAUCUGAUACCAGUCCAACUGGUAAAGCAUGAGGAUCACCCAUGUAAAAUUGGGACCCUUGGCAGCAGAUCGCAUACU | 0.146 | 0.166 | 0.19 | 0.316 | 0.138
UGUCAGCGAAAGUUGACAUGCAGUGCCGGUCGAGGACCGGUACGGCCGCCACUCGAUCUCUCGUACAUGAGGAUCACCCAUGUCG [SS Tryp A #19] | 0.0144 |  | 0.0166 | 0.0149 | 
UGUCAGCGAAAGUUGACAUGUUGAACCGGUCGAGGACCGGUACGGCCGCCACUCGAUCUCUCGUACAUGAGGAUCACCCAUGUCG [SS Tryp A #18] | 0.0119 |  | 0.014 | 0.0117 | 
UGUCAUGGAAACAUGACUGGUUCUACCGGUCGAGGACCGGUACGGCCGCCACUCGAUUGGUGGCACAUGAGGAUCACCCAUGUUA [SS Tryp A #14] | 0.0262 |  | 0.0519 | 0.0339 | 
UGUCCUCAUGCGGCCGCCACUGUCGGCCGCCACUAAACAUGAGGAUCACCCAUGUAGGACCGGGACAGGACCGGGCAUGGGUGCU [TryBS - #DoubleAptamer] | 0.132 | 0.102 | 0.232 | 0.244 | 0.319
UGUGCAGGAUGCGUAAAGGGUCUUGGGCAUCGAGGACCGGUACGGCCGCCACUCGGCUGUACAUGAGGAUCACCCAUGUCAGGGU [#1 Same State - Tryptophan A Attempt #20 (HarryS)] | 0.0908 | 0.226 | 1.06 | 0.393 | 0.271
UUAAUCGUGCAUGAUACCAGUAUCCGUAGAUACAUGAGGAUCACCCAUGUCUGGUUGGAAUACCCUUGGCAGCAUGGGUUGAGGA [theeternabot_sameState_MS2_Theo_B_20] | 0.0371 |  | 0.224 |  | 0.238
UUACACAUCUCGGCCGCCACUGGCUUCAAAAUAAUGUGUACAUGAGGAUCACCCAUGUCCGAGCUCAGGACCGGGAGCAAAGAAG [SS Tryp B #14] | 0.0211 |  | 0.0292 | 0.0284 | 
UUACAUGAGGAUCACCCAUGUCAUACAGAAGGAGCGUCACAUAAGACAGGUAGGUCGCUGUUAUUUCAUACUGUUAUAUCCUCUA [JR_Nu_ExcArginiA_Sub029] | 0.0301 | 0.0403 | 0.0562 | 0.0471 | 0.04
UUAGAUAUGACAGAUACCAGCGUGUUGUAGAACAUGAGGAUCACCCAUGUAGUGAUCGUGCGCCCUUGGCAGCUGGUAUGUUUGG [7.W] | 0.148 |  | 0.341 |  | 0.788
UUAUAUUCUCAAUCGCCAUGUGCUUUAGAUACCAGUCUGAUAAAUGACCCUUGGCAGCUAGAGACAUGAGGAUCACCCAUGUCUU [theeternabot_exclusion_MS2_Theo_A_8] | 0.0113 |  | 0.0139 |  | 0.0112
UUAUGCAGGUCGGCCGCCACUACACACAUGAGGAUCACCCAUGUAGUUACUGGGUGAAGUGGCAGUAGGACCGGGACCUGCAUAC [Brourdmod06] | 0.0554 |  | 0.396 | 0.877 | 
UUCUACAUGAGGAUCACCCAUGUGGGUGAUACCAGCACUUUUUGGUGCCCUUGGCAGCACAUGAGAAUACCGUACGAUCGGUGAU [Isbiti] | 0.103 |  | 0.559 |  | 0.508
UUGACAUGAGGAUCACCCAUGUCAAAGGCACGAGGACCGGUACGGCCGCCACUCGUGGUCUAUGGCUGGUGGACUCGUGUCUCGG [Soisusdira] | 0.0122 | 0.012 | 0.016 | 0.0168 | 0.0108
UUGCUCUCUUCGGCCGCCACUACACGCGAGUUGACGACUGGCGGACAUGAGGAUCACCCAUGUCAUAGGACCGGGAAUCACGCUG [theeternabot_sameState_MS2_Trp_B_11] | 0.0115 |  | 0.0159 | 0.0152 | 
